Experiment [1] concerns the target human neonatal Fc receptor (FcRn), non-covalent complex with beta-2-microglobulin (human) (UniProt P55899). In words: FcRn affinity column (Example 2), Fc-region after IdeS cleavage.
For experiment [2] the target is unchanged. In words: FcRn affinity column, run of the Bevacizumab comparison.
The target of experiment [3] is T1, human IL-12 (human, UniProt P29459 23-219; P29460 23-328).
T1 construct: also called interleukin 12
T1 sequence (looked up) 1: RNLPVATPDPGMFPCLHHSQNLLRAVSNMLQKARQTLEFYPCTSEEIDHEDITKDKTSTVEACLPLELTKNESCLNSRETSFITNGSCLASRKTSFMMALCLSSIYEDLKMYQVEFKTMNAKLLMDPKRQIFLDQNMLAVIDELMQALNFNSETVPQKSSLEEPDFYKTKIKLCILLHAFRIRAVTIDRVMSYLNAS
T1 sequence (looked up) 2: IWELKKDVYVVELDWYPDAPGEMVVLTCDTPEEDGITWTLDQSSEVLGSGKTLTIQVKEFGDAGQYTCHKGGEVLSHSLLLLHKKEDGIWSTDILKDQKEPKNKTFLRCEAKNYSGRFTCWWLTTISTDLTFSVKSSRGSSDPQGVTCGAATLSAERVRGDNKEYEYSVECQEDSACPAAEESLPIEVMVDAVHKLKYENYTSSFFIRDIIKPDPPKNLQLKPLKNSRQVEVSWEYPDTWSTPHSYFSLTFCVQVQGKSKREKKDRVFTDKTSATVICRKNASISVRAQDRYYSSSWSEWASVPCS
Nature of the experiment: SPR, IL-12. On the technique in general: Surface plasmon resonance follows binding to a sensor surface in real time, without labels.

For experiment [4], the target named is human neonatal Fc receptor (FcRn), non-covalent complex with beta-2-microglobulin (human) (UniProt P55899). In words: FcRn affinity chromatography, pH gradient 5.5-8.8, 140 mM NaCl (Example 2).
Sequence of human neonatal Fc receptor (FcRn), non-covalent complex with beta-2-microglobulin (human) (P55899 other isoform, or with tags, fused parts or gaps limits assumed, chain 1 of 2): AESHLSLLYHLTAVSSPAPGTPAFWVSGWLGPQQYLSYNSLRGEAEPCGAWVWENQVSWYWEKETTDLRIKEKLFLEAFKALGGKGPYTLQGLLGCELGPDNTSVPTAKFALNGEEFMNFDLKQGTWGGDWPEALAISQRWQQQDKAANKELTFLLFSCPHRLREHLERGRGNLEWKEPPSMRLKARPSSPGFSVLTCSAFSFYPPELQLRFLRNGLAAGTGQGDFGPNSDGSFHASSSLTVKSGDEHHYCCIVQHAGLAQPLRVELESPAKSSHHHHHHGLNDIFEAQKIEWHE
Sequence of human neonatal Fc receptor (FcRn), non-covalent complex with beta-2-microglobulin (human) (b2m, as listed by the source limits assumed, chain 2 of 2): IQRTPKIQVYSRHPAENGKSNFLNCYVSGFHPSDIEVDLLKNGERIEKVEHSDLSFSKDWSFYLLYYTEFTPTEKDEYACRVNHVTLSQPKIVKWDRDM
Experiment [5] deals with T1, human IL-12. In words: IL-12 ELISA, concentration calculated from the fit of the Briakinumab calibration curve.
The target of experiment [6] is human neonatal Fc receptor (FcRn), non-covalent complex with beta-2-microglobulin (human) (UniProt P55899). Nature of the experiment: SPR, huFcRn immobilised, pH 6.0, steady state affinity normalised to Ustekinumab.
Experiment [7] has the same target. In words: FcRn affinity chromatography, pH gradient 5.5-8.8, 140 mM NaCl (Example 2); FcRn affinity column, Example 2, 140 mM NaCl, pH gradient; complete antibody.
For experiment [8] the target is unchanged. Nature of the experiment: SPR, FcRn, buffer pH 6.4.
For experiment [9] the target is unchanged. In words: SPR, FcRn, buffer pH 6.0.
Experiment [10] has the same target. In words: FcRn affinity chromatography, pH gradient (Example 2), pH measured offline; FcRn affinity column, Example 2; elution pH at 93.7 min.
The target is the same in experiment [11]. In words: FcRn affinity column (Example 2).
The target is the same in experiment [12]. Nature of the experiment: SPR, huFcRn immobilised, pH 6.0, steady state affinity normalised to Ustekinumab; SPR steady state, pH 6.0, KD relative to Ustekinumab = 1.
For experiment [13] the target is unchanged. Nature of the experiment: SPR, FcRn, buffer pH 6.6.
The target is the same in experiment [14]. Nature of the experiment: SPR, FcRn, buffer pH 6.8.
For experiment [15] the target is unchanged. Nature of the experiment: FcRn affinity column, Example 3 method, elution buffer 20 mM Tris/HCl, 400 mM NaCl, pH 8.8; FcRn affinity column, Example 3, high salt 400 mM NaCl.
The target is the same in experiment [16]. Nature of the experiment: SPR, FcRn, buffer pH 7.0.
For experiment [17] the target is unchanged. Nature of the experiment: FcRn affinity chromatography, pH gradient (Example 2), pH measured offline.
Experiment [18] has the same target. Nature of the experiment: FcRn affinity chromatography, pH gradient (Example 2), pH measured offline; FcRn affinity column, Example 2; elution pH at 84.3 min.
The target is the same in experiment [19]. Nature of the experiment: SPR, huFcRn immobilised, pH 6.0, steady state affinity normalised to Ustekinumab; SPR steady state, pH 6.0; the reference, set to 1.
In experiment [20] the target is T1, human IL-12. In words: IL-12 ELISA, absorbance against antibody concentration.

What is called Kd is a measure of binding affinity in units of concentration. Read a high Kd as a looser complex. What is called koff is the first-order rate constant of dissociation. A low value points to slow dissociation. Broadly, the kon is the rate constant with which the complex forms. Low values mean slow association, high ones fast association.

In experiment [1], IdeS-cleaved Fc-region of Briakinumab came in with a FcRn column retention time of 85.7 min.

For the molecule IdeS-cleaved Fc-region of Ustekinumab, the FcRn column retention time in experiment [1] is 85.2 min.

With Bevacizumab-wild-type (antibody), in experiment [2], the FcRn column retention time turned out to be 84.7 min.

B1: mAb 2 (antibody, V domains shown)
VH: QVQLVESGGGVVQPGRSLRLSCAASGFTFSSYGMHWVRQAPGKGLEWVAFIRYDGSNKYYADSVKGRFTISRDNSKNTLYLQMNSLRAEDTAVYYCKTHGSHDNWGQGTMVTVSS
VL: QSVLTQPPSVSGAPGQRVTISCSGSRSNIGSNTVKWYQQLPGTAPKLLIYYNDQRPSGVPDRFSGSKSGTSASLAITGLQAEDEADYYCQSYDRYTHPALLFGTGTKVTVLG
notes: Fv domain of Briakinumab on the Ustekinumab constant domains (IgG1)
In [3], B1 displayed a dissociation constant (Kd) of 0.25 nM, a dissociation rate constant (koff) of 0.0003 s⁻¹ and an association rate constant (kon) of 1.2e+06 M⁻¹ s⁻¹. This molecule registered a FcRn column retention time in experiment [4] of 93 min. Besides, the “window of IL-12 binding relative to Briakinumab (Briakinumab=100%)” value in experiment [5] is at most 20%. The rel. KD (Ustekinumab = 1) in [6] turned out to be 0.3.

B2: Briakinumab (antibody, V domains shown)
VH: QVQLVESGGGVVQPGRSLRLSCAASGFTFSSYGMHWVRQAPGKGLEWVAFIRYDGSNKYYADSVKGRFTISRDNSKNTLYLQMNSLRAEDTAVYYCKTHGSHDNWGQGTMVTVSS
VL: QSVLTQPPSVSGAPGQRVTISCSGSRSNIGSNTVKWYQQLPGTAPKLLIYYNDQRPSGVPDRFSGSKSGTSASLAITGLQAEDEADYYCQSYDRYTHPALLFGTGTKVTVLG
notes: Fully human IgG1; also called ABT 874; J 695
Take B2: the dissociation constant Kd amounted to 0.07 nM in [3]; 100 nM in experiment [8]; 90 nM in experiment [9]; 360 nM in [13]; 600 nM in experiment [14]; 4200 nM in experiment [16]. The molecule further registered an off-rate (koff) in experiment [3] of 6e-05 s⁻¹. Further, the on-rate constant (kon) in experiment [3] was determined as 800000 M⁻¹ s⁻¹. Moreover, the FcRn column retention time is 93.7 min in experiment [7], 91.6 min in experiment [2], 93.7 min in experiment [11] and 83.1 min in experiment [15]. Also, the “window of IL-12 binding relative to Briakinumab (Briakinumab=100%)” value in experiment [5] was at most 20%. This molecule yielded a FcRn column elution pH in experiment [10] of 7.9 pH. The rel. KD (Ustekinumab = 1) in experiment [12] and in [6] was 0.2 throughout.

B3: mAb 8 (antibody, IgG1, V domains shown)
VH: QVQLVESGGGVVQPGASLALSCAASGFTFSSYGMHWVRQAPGKGLEWVAFIRYDGSNAYYADSVAGRFTISRDNSKNTLYLQMNSLAAEDTAVYYCKTHGSHDNWGQGTMVTVSS
VL: QSVLTQPPSVSGAPGQRVTISCSGSRSNIGSNTVKWYQQLPGTAPKLLIYYNDQRPSGVPDRFSGSKSGTSASLAITGLQAEDEADYYCQSYDRYTHPALLFGTGTKVTVL
notes: Briakinumab variant (IgG1) with five positively charged heavy chain residues mutated; also called Briakinumab with HC mutations R16A, R19A, K57A, K64A, R83A
Regarding B3, in experiment [3], the affinity, expressed as Kd, was 0.07 nM; the koff was 9.1e-05 s⁻¹; the on-rate constant (kon) turned out to be 1.2e+06 M⁻¹ s⁻¹. In experiment [17], the FcRn column elution pH came to 7.7 pH. The molecule further returned a FcRn column retention time in [4] of 90.1 min. For the same molecule, the FcRn column retention time in experiment [11] was found to be 90.1 min. In experiment [6], this molecule yielded a rel. KD (Ustekinumab = 1) of 0.4.

B4: mAb 9 (antibody, IgG1, V domains shown)
VH: QVQLVESGGGVVQPGRSLRLSCAASGFTFSSYGMHWVRQAPGKGLEWVAFIRYDGSNKYYADSVKGRFTISRDNSKNTLYLQMNSLRAEDTAVYYCKTHGSHDNWGQGTMVTVSS
VL: QSVLTQPPSVSGAPGQRVTISCSGSASNIGSNTVKWYQQLPGTAPKLLIYYNDQAPSGVPDRFSGSKSGTSASLAITGLQAEDEADYYCQSYDAYTHPALLFGTGTKVTVL
notes: Briakinumab variant (IgG1) with three positively charged residues of the light chain CDRs mutated to alanine; also called Briakinumab with LC mutations R27A, R55A, R94A
On to B4, for which, in experiment [3], binding was put at a Kd of 0.01 nM, the dissociation rate constant (koff) was 0.00013 s⁻¹ and the on-rate constant (kon) amounted to 8.8e+06 M⁻¹ s⁻¹. For the same molecule, in experiment [17], the FcRn column elution pH worked out at 7.5 pH. In [4], this molecule displayed a FcRn column retention time of 86.2 min. The FcRn column retention time in [11] was 86.2 min. In experiment [6], this molecule yielded a rel. KD (Ustekinumab = 1) of 0.4.

B5: Ustekinumab (antibody, V domains shown)
VH: EVQLVQSGAEVKKPGESLKISCKGSGYSFTTYWLGWVRQMPGKGLDWIGIMSPVDSDIRYSPSFQGQVTMSVDKSITTAYLQWNSLKASDTAMYYCARRRPGQGYFDFWGQGTLVTVSS
VL: DIQMTQSPSSLSASVGDRVTITCRASQGISSWLAWYQQKPEKAPKSLIYAASSLQSGVPSRFSGSGSGTDFTLTISSLQPEDFATYYCQQYNIYPYTFGQGTKLEIK
notes: Fully human IgG1; also called CNTO 1275; Stelara
As for B5, the equilibrium dissociation constant (Kd) in experiment [3] was determined as 0.2 nM; in [8] it was 1000 nM; in [9], 390 nM; in experiment [13] it was 3100 nM. In experiment [3], the koff came to 0.00018 s⁻¹. This molecule registered an on-rate constant (kon) in [3] of 900000 M⁻¹ s⁻¹. In addition, the FcRn column retention time is 84.3 min in [7], 83.6 min in experiment [2], 84.3 min in experiment [11] and 80.4 min in experiment [15]. Besides, the “window of IL-12 binding relative to Briakinumab (Briakinumab=100%)” value in experiment [5] was at most 20%. This molecule came in with a FcRn column elution pH in experiment [18] of 7.4 pH. For the same molecule, the rel. KD (Ustekinumab = 1) in experiment [19] and in [6] was 1 in each case.

B6: mAb 1 (antibody, V domains shown)
VH: EVQLVQSGAEVKKPGESLKISCKGSGYSFTTYWLGWVRQMPGKGLDWIGIMSPVDSDIRYSPSFQGQVTMSVDKSITTAYLQWNSLKASDTAMYYCARRRPGQGYFDFWGQGTLVTVSS
VL: DIQMTQSPSSLSASVGDRVTITCRASQGISSWLAWYQQKPEKAPKSLIYAASSLQSGVPSRFSGSGSGTDFTLTISSLQPEDFATYYCQQYNIYPYTFGQGTKLEIK
notes: Fv domain of Ustekinumab on the constant parts of Briakinumab (IgG1)
As to B6, in [3], the affinity, expressed as Kd, was 0.24 nM; the off-rate constant (koff) stood at 0.00041 s⁻¹; the on-rate (kon) came to 1.7e+06 M⁻¹ s⁻¹. Besides, the FcRn column retention time in [4] was determined as 84.3 min. In experiment [6], this molecule had a rel. KD (Ustekinumab = 1) of 1.

B7: mAb 3 (antibody, V domains shown)
VH: EVQLVQSGAEVKKPGESLKISCKGSGYSFTTYWLGWVRQMPGKGLDWIGIMSPVDSDIRYSPSFQGQVTMSVDKSITTAYLQWNSLKASDTAMYYCARRRPGQGYFDFWGQGTLVTVSS
VL: QSVLTQPPSVSGAPGQRVTISCSGSRSNIGSNTVKWYQQLPGTAPKLLIYYNDQRPSGVPDRFSGSKSGTSASLAITGLQAEDEADYYCQSYDRYTHPALLFGTGTKVTVLG
notes: Heavy chains of Ustekinumab and light chains of Briakinumab (whole chains)
The molecule B7 came in with a FcRn column retention time in experiment [4] of 92.4 min. Also, the binding result in [20] is reported as “no binding (tested: 12 ng/mL)”. In [6], the rel. KD (Ustekinumab = 1) came out at 0.2.

These data come from US20170227547A1 (Hoffmann-La Roche, published 2017).
